Experimental data reported in publication PMC10716038, “Talin and kindlin use integrin tail allostery and direct binding to activate integrins” (Nature Structural & Molecular Biology, 2023).
No end group written: not given here.

Experiments:
[1] = molecular target: T1, kindlin-2 (KIND2) (UniProt Q8CIB5 1-680); test: NMR titration; 15N-labelled TLN1-F3 observed in the presence of β1-CT at saturating concentration (200 µM) with 75 µM KIND2 added; 298 K; details: both partners purified
T1 construct: kindlin-2 (KIND2) without the deletions of ΔKIND2; In FC-RDA a copy labelled with Alexa 647 (647–KIND2) was the reporter; also called 647–KIND2; source: E. coli Rosetta, purified (IMAC, SEC); not shown: His10, N-terminal, cleaved; SUMO, N-terminal, cleaved
T1 sequence (looked up): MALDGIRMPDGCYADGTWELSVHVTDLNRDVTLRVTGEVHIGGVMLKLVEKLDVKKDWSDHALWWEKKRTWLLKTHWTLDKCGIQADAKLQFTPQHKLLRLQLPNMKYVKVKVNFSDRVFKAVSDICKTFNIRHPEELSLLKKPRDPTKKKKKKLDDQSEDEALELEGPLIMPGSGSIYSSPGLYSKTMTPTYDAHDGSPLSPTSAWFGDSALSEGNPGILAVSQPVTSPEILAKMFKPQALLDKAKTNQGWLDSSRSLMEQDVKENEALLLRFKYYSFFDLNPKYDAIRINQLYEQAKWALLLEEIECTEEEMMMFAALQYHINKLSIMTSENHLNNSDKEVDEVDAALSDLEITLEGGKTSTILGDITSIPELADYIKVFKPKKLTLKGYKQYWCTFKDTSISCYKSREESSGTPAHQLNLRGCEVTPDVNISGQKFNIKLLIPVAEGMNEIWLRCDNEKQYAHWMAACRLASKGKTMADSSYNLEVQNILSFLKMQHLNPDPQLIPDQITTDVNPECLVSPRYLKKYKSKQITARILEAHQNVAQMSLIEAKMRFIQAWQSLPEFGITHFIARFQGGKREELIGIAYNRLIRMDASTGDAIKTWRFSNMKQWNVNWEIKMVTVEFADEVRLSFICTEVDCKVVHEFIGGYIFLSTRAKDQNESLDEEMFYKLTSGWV

[2] = molecular target: T2, TLN1-F3–ΔKIND2 fusion protein; test: MST
T2 chain: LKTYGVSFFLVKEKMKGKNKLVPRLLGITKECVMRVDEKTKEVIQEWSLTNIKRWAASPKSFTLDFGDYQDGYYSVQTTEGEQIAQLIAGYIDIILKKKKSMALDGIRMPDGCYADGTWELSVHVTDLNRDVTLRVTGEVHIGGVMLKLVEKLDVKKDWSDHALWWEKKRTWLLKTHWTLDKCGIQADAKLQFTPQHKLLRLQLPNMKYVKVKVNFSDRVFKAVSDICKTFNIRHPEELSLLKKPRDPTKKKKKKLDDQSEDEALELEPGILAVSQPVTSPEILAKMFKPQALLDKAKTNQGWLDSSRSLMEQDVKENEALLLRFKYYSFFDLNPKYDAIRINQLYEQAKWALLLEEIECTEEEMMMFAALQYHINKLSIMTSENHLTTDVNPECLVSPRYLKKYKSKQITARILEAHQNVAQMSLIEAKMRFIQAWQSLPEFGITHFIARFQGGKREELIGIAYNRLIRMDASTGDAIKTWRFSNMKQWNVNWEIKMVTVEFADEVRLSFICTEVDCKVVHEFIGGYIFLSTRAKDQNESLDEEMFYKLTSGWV

[3] = molecular target: T3, kindlin-2 (KIND2) (UniProt Q8CIB5 1-680); test: MST
T3 chain: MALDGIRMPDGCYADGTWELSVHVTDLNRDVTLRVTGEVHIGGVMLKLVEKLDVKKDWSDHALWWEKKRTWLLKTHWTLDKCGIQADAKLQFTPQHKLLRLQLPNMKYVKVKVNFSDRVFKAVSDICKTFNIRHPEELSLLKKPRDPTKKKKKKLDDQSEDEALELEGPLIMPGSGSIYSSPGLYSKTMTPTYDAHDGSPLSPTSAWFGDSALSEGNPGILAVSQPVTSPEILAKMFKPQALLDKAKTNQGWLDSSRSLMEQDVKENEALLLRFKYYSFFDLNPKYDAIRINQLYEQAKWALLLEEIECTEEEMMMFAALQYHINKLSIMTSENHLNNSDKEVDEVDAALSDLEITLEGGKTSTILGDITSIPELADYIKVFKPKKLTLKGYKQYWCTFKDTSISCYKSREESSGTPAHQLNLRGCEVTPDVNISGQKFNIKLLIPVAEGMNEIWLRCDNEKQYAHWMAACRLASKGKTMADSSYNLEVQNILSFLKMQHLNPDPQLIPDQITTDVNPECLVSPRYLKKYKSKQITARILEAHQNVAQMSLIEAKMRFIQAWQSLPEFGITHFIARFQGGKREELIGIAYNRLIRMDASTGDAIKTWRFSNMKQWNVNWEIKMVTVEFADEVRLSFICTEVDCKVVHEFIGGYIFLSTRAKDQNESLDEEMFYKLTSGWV

[4] = molecular target: T3, kindlin-2 (KIND2); test: MST; apparent, with THD1
[5] = molecular target: T4, talin-1 head domain (THD1) (UniProt P26039 1-405); test: MST; apparent, with KIND2
T4 chain: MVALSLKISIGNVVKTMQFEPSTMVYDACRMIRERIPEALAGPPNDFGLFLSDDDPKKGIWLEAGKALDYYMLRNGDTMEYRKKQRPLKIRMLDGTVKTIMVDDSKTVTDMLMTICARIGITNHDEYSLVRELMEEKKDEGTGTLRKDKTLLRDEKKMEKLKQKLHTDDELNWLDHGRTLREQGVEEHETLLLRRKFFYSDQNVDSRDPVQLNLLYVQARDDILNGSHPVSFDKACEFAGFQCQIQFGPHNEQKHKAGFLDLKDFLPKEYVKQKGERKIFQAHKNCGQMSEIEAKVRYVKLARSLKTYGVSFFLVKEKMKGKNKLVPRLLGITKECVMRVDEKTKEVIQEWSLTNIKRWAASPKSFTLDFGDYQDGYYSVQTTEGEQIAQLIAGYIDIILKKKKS

[6] = molecular target: T3, kindlin-2 (KIND2); test: MST
[7] = molecular target: T5, TLN1-F3–ΔKIND2^Y13A fusion protein; test: MST; TLN1-F3 contribution
T5 chain: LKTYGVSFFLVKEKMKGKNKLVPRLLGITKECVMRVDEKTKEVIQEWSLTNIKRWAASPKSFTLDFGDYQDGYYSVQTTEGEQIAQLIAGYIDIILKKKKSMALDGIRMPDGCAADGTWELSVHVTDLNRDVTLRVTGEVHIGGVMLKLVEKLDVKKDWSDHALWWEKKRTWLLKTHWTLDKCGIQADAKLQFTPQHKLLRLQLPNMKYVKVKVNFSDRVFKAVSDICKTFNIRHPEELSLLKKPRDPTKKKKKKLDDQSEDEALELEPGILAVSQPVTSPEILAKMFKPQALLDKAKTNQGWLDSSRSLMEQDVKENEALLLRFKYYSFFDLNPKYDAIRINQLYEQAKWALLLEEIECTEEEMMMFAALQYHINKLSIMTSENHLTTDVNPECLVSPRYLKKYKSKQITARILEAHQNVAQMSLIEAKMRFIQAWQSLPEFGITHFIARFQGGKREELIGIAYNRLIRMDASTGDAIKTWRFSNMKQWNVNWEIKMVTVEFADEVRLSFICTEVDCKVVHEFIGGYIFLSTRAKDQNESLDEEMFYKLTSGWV

[8] = molecular target: T2, TLN1-F3–ΔKIND2 fusion protein; test: MST; TLN1-F3 contribution
[9] = molecular target: T6, talin-2 head domain (THD2) (UniProt Q71LX4 1-408); test: MST
T6 chain: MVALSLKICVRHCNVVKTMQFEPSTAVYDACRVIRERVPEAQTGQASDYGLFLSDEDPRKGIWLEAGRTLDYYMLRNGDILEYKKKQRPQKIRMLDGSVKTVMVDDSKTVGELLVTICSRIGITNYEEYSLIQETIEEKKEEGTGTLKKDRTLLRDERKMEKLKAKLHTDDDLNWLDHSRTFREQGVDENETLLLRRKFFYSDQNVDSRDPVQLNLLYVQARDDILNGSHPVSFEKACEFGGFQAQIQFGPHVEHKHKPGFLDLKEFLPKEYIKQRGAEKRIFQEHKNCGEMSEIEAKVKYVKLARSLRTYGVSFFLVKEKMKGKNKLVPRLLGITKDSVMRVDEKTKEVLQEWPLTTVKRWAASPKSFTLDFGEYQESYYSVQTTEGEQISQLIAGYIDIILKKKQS

[10] = molecular target: T4, talin-1 head domain (THD1); test: MST

B1: F3 domain of TLN1 (TLN1-F3) (domain or fragment, UniProt P26039 305-405, looked up)
chain: LKTYGVSFFLVKEKMKGKNKLVPRLLGITKECVMRVDEKTKEVIQEWSLTNIKRWAASPKSFTLDFGDYQDGYYSVQTTEGEQIAQLIAGYIDIILKKKKS
notes: Used unlabelled, 15N-labelled or partially deuterated in NMR; also called T1-F3; source: E. coli (DE3) Rosetta 2, purified (IMAC, SEC); not shown: His10, N-terminal, cleaved; SUMO, N-terminal, cleaved
- binding result [1]: binds

B2: ATTO 488-labelled β1-CT^Y783A (peptide)
peptide: {ATTO 488}-KLLMIIHDRREFAKFEKEKMNAKWDTGENPIAKSAVTTVVNPKYEGK
- Kd [2]: 4.3 µM
- Kd [3]: 4.9 µM

B3: ATTO 488-labelled β1-CT (488–β1-CT) (peptide)
peptide: {ATTO 488}-KLLMIIHDRREFAKFEKEKMNAKWDTGENPIYKSAVTTVVNPKYEGK
- Kd [4]: 42 µM
- Kd [5]: 153 µM
- Kd [6]: 3000 nM
- Kd [7]: 15.7 µM
- Kd [8]: 25.3 µM
- Kd [3]: 2.9 µM
- Kd [9]: 25 µM
- Kd [10]: 140 µM
